T1: murine tissue factor (TF) on transfected HEK293F cells (murine, UniProt P20352 29-294)
T1 construct: whole, on cells; also called murine TF; TFmm
T1 sequence (looked up): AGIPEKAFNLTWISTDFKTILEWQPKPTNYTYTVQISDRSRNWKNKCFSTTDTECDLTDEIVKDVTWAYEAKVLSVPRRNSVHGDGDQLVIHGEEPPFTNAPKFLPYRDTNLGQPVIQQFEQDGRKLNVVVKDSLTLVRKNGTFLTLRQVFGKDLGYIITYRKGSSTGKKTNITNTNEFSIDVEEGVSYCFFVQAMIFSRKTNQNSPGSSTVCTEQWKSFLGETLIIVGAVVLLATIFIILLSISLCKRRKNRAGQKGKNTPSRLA

B1: anti-TF HuMab 011 (antibody, V domains shown)
VH: EVQLLESGGGLVQPGGSLRLSCAASGFTFSNYAMSWVRQAPGKGLEWVSSISGSGDYTYYTDSVKGRFTISRDNSKNTLYLQMNSLRAEDTAVYYCARSPWGYYLDSWGQGTLVTVSS
VL: DIQMTQSPPSLSASAGDRVTITCRASQGISSRLAWYQQKPEKAPKSLIYAASSLQSGVPSRFSGSGSGTDFTLTISSLQPEDFATYYCQQYNSYPYTFGQGTKLEIK
notes: Human monoclonal antibody from HuMab mice; also called HuMab-TF-11
B2: anti-TF HuMab 042 (antibody, V domains shown)
VH: EVQLLESGGGLVQPGGSLRLSCAASGFTFSSYGMSWVRQAPGKGLEWVSVISGSGGTTYYADSVKGRFTISRDNSKNTLYLQMNSLRAEDTAVYYCAKAPWTYYFDYWGQGTLVTVSS
VL: not shown
notes: Human monoclonal antibody from HuMab mice
B3: anti-TF HuMab 025 (antibody, V domains shown)
VH: QVQLVESGGGVVQPGRSLRLSCAASGFTFSRYAMHWVRQAPGKGLEWVAVISNDGYNDYYADSVKGRFTVSRDNSKNTLYLQMNSLRAEDTAVYYCARDGQLGRGYFDYWGQGTLVTVSS
VL: EIVLTQSPATLSLSPGERATLSCRASQSVSSYLAWYQQKPGQAPRLLIYDASNRATGIPARFSGSGSGTDFTLTISSLEPEDFAVYYCQQRSNWPLTFGGGTKVEIK
notes: as for B2

How the values were obtained:
[1] = target: T2, human tissue factor (TF), membrane-bound on cells (human, UniProt P13726 33-295); test: FACS, A431 cells
T2 construct: whole, on cells; also called cellular TF
Experimental: (§1) Cells were resuspended in PBS (2×10⁶ cells/ml), put in 96-well V-bottom plates (50 μl/well). 50 μl of serially diluted HuMab in FACS buffer (PBS supplemented with 0.1% BSA and 0.02% Na-azide) was added to the cells and incubated for 30 minutes on ice. After washing three times with FACS buffer, 50 μl of phycoerythrin (PE)-conjugated goat anti-human IgGFc (Jackson ImmunoResearch), diluted 1:100 in FACS buffer, was added. After 30 minutes on ice (in the dark), cells were washed three times, and specific binding of the HuMabs was detected by flow cytometry on a FACSCalibur (BD Biosciences). HuMab-KLH was used as a negative control. Mouse anti-TF followed by PE-conjugated anti-mouse IgGFc was used as positive control. Binding curves were analyzed using non-linear regression (sigmoidal dose-response with variable slope) using GraphPad Prism V4.03 software (GraphPad Software, San Diego, Calif., USA).

[2] = target: T2, human tissue factor (TF), …; test: FACS, Bx-PC3 cells
Experimental: as §1

TF (Innovin) [3] = target: T3, TF (Innovin) (UniProt P13726 33-295, limits assumed); test: cell-based or functional assay
[4] = target: T2, human tissue factor (TF), …; test: FACS, A431 cells, 30 µg/mL
Experimental: as §1

[5] = target: T2, human tissue factor (TF), …; test: FACS, Bx-PC3 cells, 30 µg/mL
Experimental: as §1

[6] = target: T2, human tissue factor (TF), …; test: FACS, MDA-MB-231 cells, 30 µg/mL
Experimental: as §1

[7] = target: T4, TFECDHis (extracellular domain of tissue factor, amino acid 1-251, with C-terminal His tag) (human, UniProt P13726 33-251); test: ELISA, coated TFECDHis, mean of 3
T4 construct: range 1-251; The stated range 1-251 starts at residue 1 of NP-001984; also called extracellular domain of TF
Experimental: The specificity of the obtained anti-TF HuMabs was evaluated by ELISA. ELISA plates (Microlon; Greiner Bio-One) were coated overnight at +4° C. with 0.5 μg/mL of TFECDHis in PBS, pH 7.4. Coated ELISA plates were emptied and blocked for one hour at room temperature with 2% (v/v) chicken serum (Gibco, Paisley, Scotland) in PBS and washed with PBS containing 0.05% Tween 20 (PBST). Subsequently, HuMabs, serially diluted in PBSTC (PBS supplemented with 2% (v/v) chicken serum and 0.05% (v/v) Tween-20), were incubated for 1 hr at RT under shaking conditions (300 rpm). Bound HuMabs were detected using HRP-conjugated goat-anti-human IgG antibodies (Jackson ImmunoResearch) diluted 1:5,000 in PBSTC, which were incubated for 1 hr at RT under shaking conditions (300 rpm). […] HuMab-KLH (a human monoclonal antibody against KLH (keyhole limpet haemocyanin)), was used as a negative control. Mouse anti-human TF (ERL) was used as positive control (HRP labeled anti-mouse IgG as conjugate). Binding curves were analyzed using non-linear regression (sigmoidal dose-response with variable slope) using GraphPad Prism V4.03 software.

[8] = target: T2, human tissue factor (TF), …; test: FACS, TF transfected CHO cells (S1015-TF)
Experimental: as §1

[9] = target: T2, human tissue factor (TF), …; test: FACS, TF transfected CHO cells (S1015-TF), 7.5 µg/mL
Experimental: as §1

[10] = target: T4, TFECDHis (extracellular domain of …); test: SPR BIAcore 3000, HuMab immobilized, TFECDHis analyte
Experimental: Antibody binding to TF was analyzed by surface plasmon resonance in a BIAcore 3000 (GE Healthcare). TFECDHis was used for the analysis. HuMab antibodies (500 resonance units) were immobilized on the CM-5 sensor chip according to the procedure recommended by the manufacturer. Briefly, after surface activation by EDC and NHS HuMab antibody was injected over the activated CM-5 surface in 10 mM sodium-acetate, pH ranging from 4.0 to 5.5 at 5 μl/min. followed by 1 M Ethanolamine for deactivation. Concentration series of TFECDHis in HBS-EP buffer were injected over the immobilized antibodies at a flow rate of 30 μl/min for 180 sec. Regeneration of the HuMab surface was performed by injection of 10 mM Glycine-HCl pH 2.0 or 10 mM sodium acetate pH 3.0. Kinetic analysis was performed using double reference subtraction and model 1:1 (langmuir) binding analysis.

[11] = target: T2, human tissue factor (TF), …; test: FACS on AsPC-1 cells (~175.000 TF molecules/cell) [panel AsPC-1 cells]
Experimental: as §1
(§2) Binding of anti-TF HuMabs to membrane-bound TF on cell lines expressing different levels of TF was determined by FACS analysis, essentially as described supra. Mouse anti-TF antibody followed by PE-conjugated anti-mouse IgGFc was used as a positive control. Fluorescence was measured on a FACSCantoII. Binding curves were analyzed essentially as described supra, using GraphPad Prism 5 software. The amount of TF molecules on cell lines was determined by Qifi kit (Dako, Glostrup, Denmark), according to the manufacturer's instructions.

[12] = target: T2, human tissue factor (TF), …; test: FACS on SK-OV-3 cells (~60.000 TF molecules/cell) [panel SK-OV-3 cells]
Experimental: as §1
Binding of anti-TF HuMabs to membrane-bound TF on cell lines expressing different levels of TF was determined by FACS analysis, essentially as described supra. […] Fluorescence was measured on a FACSCantoII. Binding curves were analyzed essentially as described supra, using GraphPad Prism 5 software. The amount of TF molecules on cell lines was determined by Qifi kit (Dako, Glostrup, Denmark), according to the manufacturer's instructions.

[13] = target: T1, murine tissue factor (TF) on …; test: FACS on transfected HEK293F cells, 30 µg/mL antibody [panel B]
[14] = target: T2, human tissue factor (TF), …; test: FACS on MDA-MB-231 cells (~900.000 TF molecules/cell) [panel MDA-MB-231 cells]
Experimental: as §1, §2

[15] = target: T4, TFECDHis (extracellular domain of …); test: ELISA on coated extracellular domain of TF, detection with HRP-conjugated donkey anti-human H+L
[16] = target: T1, murine tissue factor (TF) on …; test: FACS on transfected HEK293F cells, 30 µg/mL antibody [panel G]
[17] = target: T2, human tissue factor (TF), …; test: FACS, MDA-MB-231 cells
Experimental: as §1

[18] = target: T2, human tissue factor (TF), …; test: cell-based or functional assay
[19] = target: T2, human tissue factor (TF), …; test: cell-based or functional assay; remark: listed apart in the source
TF (Innovin) [20] = target: T3, TF (Innovin); test: cell-based or functional assay; remark: listed apart in the source
[21] = target: T2, human tissue factor (TF), …; test: cell-based or functional assay; remark: listed apart in the source
[22] = target: T4, TFECDHis (extracellular domain of …); test: competition ELISA, inhibition of FVIIa (100 nM) binding to coated TFECDHis
Experimental: ELISA plates were coated overnight with TFECDHis (0.5 μg/mL, 100 μL per well). Plates were emptied, blocked with PBS containing 2% (v/v) chicken serum (1 hour, RT), and emptied again. […] Plates were washed and incubated with swine-anti-rabbit IgG-HRP antibody (1:2,500; DAKO). After washing, the immune complexes were visualized using ABTS as a substrate.

[23] = target: T1, murine tissue factor (TF) on …; test: FACS on transfected HEK293F cells, 30 µg/mL antibody [panel E]

Binder	EC50 [1]	EC50 [2]	IC50, inhibition of blood coagulation (TF induced clotting time) (TF (Innovin) [3])	Max MFI [4]	Max MFI [5]	Max MFI [6]	EC50 [7]	EC50 [8]	Max MFI [9]	Kd [10]	also measured
B1	0.2 nM	1.01 nM	1.6 nM	2610	1280	2140	0.16 nM	1.32 nM	5650	3.15 nM	EC50 (read off the curve) [11]: ~0.07 µg/mL; EC50 (read off the curve) [12]: ~0.02 µg/mL; binding result [13]: no binding (tested: 30 µg/mL); EC50 (read off the curve) [14]: ~0.03 µg/mL; EC50 (read off the curve) [15]: ~0.1 µg/mL
B2	–	–	–	–	–	–	–	–	–	–	binding result [16]: no binding (tested: 30 µg/mL)
B3	5.19 nM	0.88 nM	2.3 nM	3170	1320	2250	0.34 nM	0.73 nM	5810	1.97 nM	EC50 [17]: 0.69 nM; % max inhibition of FVIIa induced ERK phosphorylation (A431) [18]: 66%; IC50, inhibition of FVIIa induced ERK phosphorylation (A431) [18]: 2.16 nM; IC50, inhibition of FVIIa induced IL-8 release (MDA-MB-231) [19]: 23.1 nM; max inhibition of FVIIa induced IL-8 release (MDA-MB-231) [19]: 75.6%; % max inhibition of FXa generation (TF (Innovin) [20]): 19%; IC50, inhibition of FXa generation (TF (Innovin) [20]): 0.3 nM; EC50 of ADCC, A431 cells [21]: 0.16 nM; EC50 of ADCC, Bx-PC3 cells [21]: 0.15 nM; EC50 of ADCC, MDA-MB-231 cells [21]: 0.24 nM; max inhibition [22]: 90%; binding result [23]: no binding (tested: 30 µg/mL)

Source: patent publication US20110300156A1 (Genmab, published 2011)
